Experiment [1] deals with T1, Cdc42Δ7Q61L (human, UniProt P60953 1-184, Q61L). The experiment in a line: competition SPA vs GST-WASP GBD.
Target sequence in this assay (P60953 1-184 Q61L): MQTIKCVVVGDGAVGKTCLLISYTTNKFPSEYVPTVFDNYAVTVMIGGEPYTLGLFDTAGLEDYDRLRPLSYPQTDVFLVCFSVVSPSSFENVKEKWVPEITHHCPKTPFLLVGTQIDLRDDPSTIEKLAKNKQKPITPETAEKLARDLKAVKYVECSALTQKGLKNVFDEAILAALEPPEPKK
The target in experiment [2] is T1, Cdc42Δ7Q61L. The experiment in a line: direct SPA, GTP-bound Cdc42.
The target of experiment [3] is T1, Cdc42Δ7Q61L. The experiment in a line: direct SPA, GTP-bound Cdc42. The source holds these as a separate data set.

Bounds are passed on as bounds.

B1: N-WASP G protein-binding domain (GBD) (residues 197–255) (domain or fragment)
chain: KKKLTKADIGTPSNFQHIGHVGWDPNTGFDVNNLDPELKKLFDLCGISEAQLKDKETSK
With B1, the Kd (usually a measure of binding affinity in units of concentration) with Cdc42Δ7Q61L [1] worked out at 16 nM.

B2: His-SNAP-TOCA1 (full-length X. tropicalis TOCA1) (natural protein)
chain: MSWGTELWDQFDNLEKHTQWGIDFLDKYAKFVKERLEIEQNYAKQLRNLVKKYCPKRSAKDEEPRFTSCLSFYNILNELNDYAGQREVVAEEMGHRVYAEIMRYSNDIKGERKSHLQEGRKAQQYLDMCLKQMDNSKRKFERECREAEKAQQTYERLDNDSNATKSDVEKAKQQLHLRTHMADESKNEYAAQLQNYNAEQHKHFYIVIPQVYKHLQEMDERRTVKLSECYKGFADAERKVIPIISKCLEGMVQAAKSVDERRDSQIVVDCFKSGFEPNGDYPFEDYSQHIYRTVSDGTISTPKQESLKPDPRVTVGKAKGKLWLFGKKPKGPALEDFSHLPPEQRRKRLQQRIDELSRELQKEMDQKDALNKMKDVYEKNPQMGDPSSLHPKIAETTSNIERLRMEIHKNEAWLSEVEGKVSQRSERRHSAEANHLVAQGRESPEGSYTEDANQEGRVQPQPHAHPEFDDEFDDDEPLPAIGHCKSLYPFDGNNEGTLAMKEGEVLYIIEEDKGDGWTRARKQNGEEGYVPTSYIDITLEKNSKGAVTYI
Consider B2, for which, in the experiment with Cdc42Δ7Q61L [2], the dissociation constant Kd was above 1000 nM.

B3: His-SNAP-TOCA1 ΔSH3 (residues 1–480) (domain or fragment)
chain: MSWGTELWDQFDNLEKHTQWGIDFLDKYAKFVKERLEIEQNYAKQLRNLVKKYCPKRSAKDEEPRFTSCLSFYNILNELNDYAGQREVVAEEMGHRVYAEIMRYSNDIKGERKSHLQEGRKAQQYLDMCLKQMDNSKRKFERECREAEKAQQTYERLDNDSNATKSDVEKAKQQLHLRTHMADESKNEYAAQLQNYNAEQHKHFYIVIPQVYKHLQEMDERRTVKLSECYKGFADAERKVIPIISKCLEGMVQAAKSVDERRDSQIVVDCFKSGFEPNGDYPFEDYSQHIYRTVSDGTISTPKQESLKPDPRVTVGKAKGKLWLFGKKPKGPALEDFSHLPPEQRRKRLQQRIDELSRELQKEMDQKDALNKMKDVYEKNPQMGDPSSLHPKIAETTSNIERLRMEIHKNEAWLSEVEGKVSQRSERRHSAEANHLVAQGRESPEGSYTEDANQEGRVQPQPHAHPEFDDEFDDDEPLPA
Consider B3, for which the Kd with Cdc42Δ7Q61L [2] is above 1000 nM.

Take ISLPSDFEHTIHVGFDAVTGEFTGMPEQWARLLQTSNITKSEQK (domain or fragment) [GST-PAK]: in the experiment with Cdc42Δ7Q61L [3], the Kd was found to be 60 nM.

For GLSAQDISQPLQNSFIHTGHGDSDPRHCWGFPDRIDELYLGN (domain or fragment) [GST-ACK GBD], the Kd with Cdc42Δ7Q61L [2] amounted to 46 nM.

These data come from paper PMC4919469 (2016).
